Here are results for 36 sequences from the supplement of paper PMC12764529.

± gives the half width of the 95% confidence interval.

Data set [1] in a line: folding stability dG unfold from trypsin proteolysis; higher = more stable. An outline of the steps:
(§1)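 Designed mini-proteins (under 80 residues, no cysteine) in a PA-tagged cDNA display construct were digested with trypsin and chymotrypsin. Each protease was used at 11 concentrations (threefold dilutions) plus a no-protease condition, followed by sequencing. K50 was inferred by Bayesian fitting of sequencing counts, and unfolding free energy was derived against a sequence-predicted unfolded-state K50 and a shared folded-state K50, per protease or combined. Only designs with AlphaFold2 dimer inter-PAE above 15 were kept.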

The nature of data set [2]: folding stability dG unfold from chymotrypsin proteolysis; higher = more stable. An outline of the steps:
as §1

Data set [3] can be described thus: folding stability dG unfold (combined trypsin and chymotrypsin); higher = more stable. An outline of the steps:
as §1

“SAGGSMIVKVTVRVDGKEYERTVEVESLEEALELELPELPEGAEVRIEVVDPETGELIETVTLRVPSAGGSA [r2_390_TrROS_Hall]”: the “folding stability dG unfold” value in data set [1] worked out at 2.3 ± 0.13 kcal/mol; in data set [2], 2.56 ± 0.052 kcal/mol; in data set [3], 2.46 ± 0.15 kcal/mol.
Consider “SAGGSMKIEKLPDGKTVVIETVDEETNTITRTRFKLDKDGKLVEMEVETITLPAPPPEEVDEDGKESAGGSA [r2_375_TrROS_Hall]”, for which the “folding stability dG unfold” value was 1.92 ± 0.098 kcal/mol in data set [1], 2.3 ± 0.092 kcal/mol in data set [2] and 2.17 ± 0.16 kcal/mol in data set [3].
“SAGGSMKPAKKITFTFPDGRKAEIFFYPEEDTIELRIYFPETGTFVEIPVKSPEDLIETLKKLLAESAGGSA [r2_70_TrMRF]”: the “folding stability dG unfold” value was 4.02 ± 0.16 kcal/mol in data set [1], 3.7 ± 0.14 kcal/mol in data set [2] and 3.75 ± 0.16 kcal/mol in data set [3].
Regarding “SAGGSMLFLRVRIEVRPPTAEDLAEGKEVKEVEILVEFDSVEELKEALEKLPPNAKVEVELVELEESAGGSA [r2_25_TrROS_Hall]”, the entries for the “folding stability dG unfold” value in data set [1], in data set [2] and in data set [3] were 2.36 ± 0.26 kcal/mol, 2.9 ± 0.17 kcal/mol and 2.83 ± 0.53 kcal/mol, respectively.
The corresponding values for “SAGGSMLIKIKLPKNNPLRDKIVEKLKKSPYVKDVKVKRLKELPNYEIFLIEVDGDPKVADEIKKLASAGGS [r16_394_TrMRF]” are 2.16 ± 0.09 kcal/mol, 3.08 ± 0.045 kcal/mol and 2.83 ± 0.15 kcal/mol.
Regarding “SAGGSMPLDVSSELLEESTDPSDPNRRTTLERRFSPDGTVTLVTRTFDPATGTTEVQETTLPPGLPSAGGSA [r2_73_JUSTAS]”, the “folding stability dG unfold” value worked out at 0.529 ± 0.06 kcal/mol in data set [1], 1.49 ± 0.14 kcal/mol in data set [2] and 1.14 ± 0.099 kcal/mol in data set [3].
Turning to “SAGGSMPLTLEIKAPASTPASEIVATLKKYGPVTVTLGDGRTYNIPRDKPPNLKGLPLAPDAVLTLVVSAGG [r13_399_JUSTAS]”, the “folding stability dG unfold” value is -0.08 ± 0.1 kcal/mol in data set [1], -0.742 ± 0.4 kcal/mol in data set [2] and -0.263 ± 0.091 kcal/mol in data set [3].
In the case of “SAGGSMPTLKPDEILTLSSTTEPLPSGGLRGRTVTLKKIPGTGKFVTITKYSYQPPDGPITSATEILLSAGG [r13_263_JUSTAS]”, the “folding stability dG unfold” value was -0.538 ± 0.48 kcal/mol in data set [1], 0.585 ± 0.26 kcal/mol in data set [2] and 0.238 ± 0.15 kcal/mol in data set [3].
As for “SAGGSMPYKTLEESESEIYDPSNGNVKYKVKTETILLPDGTILVKETIYDPETGTTETKTYTIPKGSAGGSA [r2_13_JUSTAS]”, the “folding stability dG unfold” value was determined as 1.54 ± 0.14 kcal/mol in data set [1], 1.82 ± 0.13 kcal/mol in data set [2] and 1.79 ± 0.1 kcal/mol in data set [3].
“SAGGSMRLVKITVTTLEPSAEAIAAGAPTPVTLIEREVSSEEEVEEFIKSLPPNVEVSVERLPPPASAGGSA [r2_25_JUSTAS]”: the entries for the “folding stability dG unfold” value in data set [1], in data set [2] and in data set [3] were 1.66 ± 0.11 kcal/mol, 2.16 ± 0.03 kcal/mol and 2.04 ± 0.12 kcal/mol, respectively.
The corresponding values for “SAGGSMSLEGVSTVSEEKFPEKPTTLVPLTYPDGTTVEANRTLDPVTGKWTLPVTTPDGTVVVVDESAGGSA [r2_490_JUSTAS]” are 1.34 ± 0.048 kcal/mol, 0.487 ± 0.073 kcal/mol and 0.977 ± 0.089 kcal/mol.
For the sequence “SAGGSMSPWHWARHIAKKLRKKFPPGKKVRIKIEYDDGPVEFEIPPGEWIPIPSNAPIEILNIKVKSAGGSA [r2_391_TrROS]”, the “folding stability dG unfold” value came to 1.97 ± 0.034 kcal/mol in data set [1], 2.36 ± 0.11 kcal/mol in data set [2] and 2.25 ± 0.11 kcal/mol in data set [3].
The matching figures for “SAGGSMTIKINGAEITDIEVRDDGTIRIKVRVTNENGEEVEVTLEIRIEPAPPVEVVHPDDPEALESAGGSA [r2_368_TrROS_Hall]”: 3.09 ± 0.16 kcal/mol, 2.45 ± 0.066 kcal/mol and 2.73 ± 0.097 kcal/mol.
On to “SAGGSMTISLDETIDVPEDVGVTFTFADDTVATAYFDPSEGKVRVVVYDPNKPGTLLGEFTLPVLPSAGGSA [r2_266_TrMRF]”, for which the figures for the “folding stability dG unfold” value in data set [1], in data set [2] and in data set [3] were 0.976 ± 0.017 kcal/mol, 1.41 ± 0.07 kcal/mol and 1.29 ± 0.11 kcal/mol, respectively.
Regarding “SAGGSMTIVVETPEEVEKAIKALEDELKKKGIKKGDKIKKIKVEKNENGKLTVTIEVDGKKIKIEVSAGGSA [r2_120_TrROS_Hall]”, the “folding stability dG unfold” value in data set [1] amounted to 0.37 ± 0.15 kcal/mol; in data set [2], 2.02 ± 0.25 kcal/mol; in data set [3], 1.63 ± 0.3 kcal/mol.
For the sequence “SAGGSMTLEELKNMTVEELRELLGEDAEVTVDEETGTITIRVPGKEVTIEVDEETGEVKIVEVKPVSAGGSA [r2_470_TrROS_Hall]”, the entries for the “folding stability dG unfold” value in data set [1], in data set [2] and in data set [3] were 3.31 ± 0.24 kcal/mol, 2.27 ± 0.13 kcal/mol and 2.89 ± 0.26 kcal/mol, respectively.
Turning to “SAGGSMTTPPTGEVQVFIDRKTDKWTIRIVDPNAPPTTEEVESEEEAEKVIAELEAKGYKVDTVEPLPSAGG [r13_727_JUSTAS]”, the “folding stability dG unfold” value in data set [1] was 0.658 ± 0.16 kcal/mol; in data set [2] it was 1.14 ± 0.5 kcal/mol; in data set [3], 0.913 ± 0.29 kcal/mol.
With “SAGGSMVIPTKVSSLEEAKQVAEEILKKLGRPLTLDDVSFDPEKFKAELKPDTPVVVKVKDPSGVTLGASAG [r5_503_JUSTAS]”, the “folding stability dG unfold” value in data set [1] came out at 0.457 ± 0.032 kcal/mol; in data set [2], 0.458 ± 0.15 kcal/mol; in data set [3], 0.409 ± 0.16 kcal/mol.
Turning to “SAGGSMVKVEVHYDPERDLVLVTVEAPDDPELVDEFVERMKKLGAKRVEVFRFPEDGKVRILVEIGSAGGSA [r2_358_TrMRF]”, the entries for the “folding stability dG unfold” value in data set [1], in data set [2] and in data set [3] were 3.08 ± 0.11 kcal/mol, 4.68 ± 0.081 kcal/mol and 4.36 ± 0.1 kcal/mol, respectively.
The corresponding values for “SAGGSNVEVERHPDGHMTFTFPDEDGKDVKITIHMHPDGMYMIRVPGNNQPIYFPPGQSIEDLLKLSAGGSA [r2_338_TrROS]” are 2.2 ± 0.069 kcal/mol, 2.88 ± 0.032 kcal/mol and 2.63 ± 0.098 kcal/mol.
For the sequence “SAGGSPDEAVPLPVPAKITLPGGAEFTVEEAVVLPNGEVLVKATLISPYPDPREAPFVVPLELLDISSAGGS [r16_498_TrMRF]”, the “folding stability dG unfold” value was -0.338 ± 0.054 kcal/mol in data set [1], 0.395 ± 0.03 kcal/mol in data set [2] and 0.235 ± 0.066 kcal/mol in data set [3].
“SAGGSPKAREERFEKTLPDGTVVPVTLTRLPDGTVRVETTTYTYNSPEPVASTSTTTLPEAEVAAALSAGGS [r16_470_JUSTAS]”: the “folding stability dG unfold” value in data set [1] was found to be 0.631 ± 0.099 kcal/mol; in data set [2], 0.684 ± 0.11 kcal/mol; in data set [3] it was 0.686 ± 0.086 kcal/mol.
The corresponding values for “SAGGSPKPVPVTITSVTSTSVEVYLPSTGATFTFNLNEEKTLTLPDGSKIYFTFNSDGSVTATVIEYGSAGG [r13_352_TrMRF]” are 5.03 ± 0.73 kcal/mol, 4.88 ± 0.051 kcal/mol and 4.83 ± 0.12 kcal/mol.
For “SAGGSPLVLTSEVEKKFENSPDKTVEKYKIKVTVYDPKTGKKLKEIELEKTVEKGGNEKIEEPIILSAGGSA [r2_271_JUSTAS]”, the “folding stability dG unfold” value worked out at 0.146 ± 0.084 kcal/mol in data set [1], 0.487 ± 0.21 kcal/mol in data set [2] and 0.419 ± 0.16 kcal/mol in data set [3].
For “SAGGSPNYKINVEVEEYEPNPDNGKPYYRARIKIEWYNPENGREQTREIDFWMSPDKAEKFLKDILSAGGSA [r2_357_TrROS]”, the “folding stability dG unfold” value in data set [1] came out at 1.89 ± 0.059 kcal/mol; in data set [2], 2.56 ± 0.13 kcal/mol; in data set [3] it was 2.22 ± 0.17 kcal/mol.
The matching figures for “SAGGSPPFRIKIDEIEILPNGIIQVTFKIDNGWPMTILIQMDPDGKVTIEIQFPGNGQPFEFELPISAGGSA [r2_361_TrROS]”: 2.56 ± 0.14 kcal/mol, 3.52 ± 0.07 kcal/mol and 3.27 ± 0.23 kcal/mol.
In the case of “SAGGSPPLPLKITKITDTRYERNPDGQGWVKIEIRLPENGKPITIPVQADSPEQAEYAVKEALKKFSAGGSA [r2_248_TrROS]”, the “folding stability dG unfold” value in data set [1] is -0.315 ± 0.16 kcal/mol; in data set [2], -0.424 ± 0.56 kcal/mol; in data set [3], -0.31 ± 0.36 kcal/mol.
Consider “SAGGSPSMSPEELAKREKERILEELRKKGGSKTIPMKVEITVPDEKGNTTKYNIEINITVEVPEDKLSAGGS [r16_550_JUSTAS]”, for which the “folding stability dG unfold” value in data set [1] stood at 0.622 ± 0.082 kcal/mol; in data set [2], 1.31 ± 0.1 kcal/mol; in data set [3], 0.974 ± 0.15 kcal/mol.
The corresponding values for “SAGGSPVLKVEVFELEEDKLLLKIYFPKEEAGLTPEQKEALAKAIQELFPNTKAFTTDEELYIVVDSAGGSA [r2_256_TrMRF]” are 2.06 ± 0.075 kcal/mol, 2.38 ± 0.15 kcal/mol and 2.37 ± 0.12 kcal/mol.
Regarding “SAGGSPVVLTKSPDGLLYVVTLTDPANSLDRVKAKVTAYDPNKPVPLGELTIELDPKTGKAVSALSSAGGSA [r2_324_JUSTAS]”, the “folding stability dG unfold” value in data set [1] is -0.543 ± 0.097 kcal/mol; in data set [2] it was 0.488 ± 0.089 kcal/mol; in data set [3] it was 0.21 ± 0.093 kcal/mol.
On to “SAGGSPWIFVIKIEWEPRDPDGKKKKYEYSIVITATPNQLDELLEQIKKAPPGYKIKEVKIEVFPFSAGGSA [r2_75_TrROS]”, for which the “folding stability dG unfold” value in data set [1] worked out at 2.65 ± 0.18 kcal/mol; in data set [2], 4.21 ± 0.086 kcal/mol; in data set [3], 3.82 ± 0.21 kcal/mol.
As to “SAGGSQLDEYRKKVEEAIEKAKAEGKPVEKIELTGSEEVAKEVREWLEEQGIPKSVKVTVTPPAINESAGGS [r16_164_JUSTAS]”, the entries for the “folding stability dG unfold” value in data set [1], in data set [2] and in data set [3] were 0.433 ± 0.04 kcal/mol, 1.13 ± 0.015 kcal/mol and 0.83 ± 0.077 kcal/mol, respectively.
The corresponding values for “SAGGSSESKTVTAPDGRVLEFTKSLDPTSSNSRYTLTVYAPESGEPLREAEFSSEEEAEKYIAEGLGSAGGS [r8_450_JUSTAS]” are -0.0113 ± 0.067 kcal/mol, 0.487 ± 0.072 kcal/mol and 0.331 ± 0.068 kcal/mol.
The matching figures for “SAGGSSFTGTVTPVKVDPVNPDLVTVATTLTWPDGTTVPLTRTIPRSVYDSLPENISISVTLSPPSSAGGSA [r2_128_JUSTAS]”: -0.0475 ± 0.15 kcal/mol, 1.33 ± 0.1 kcal/mol and 0.942 ± 0.1 kcal/mol.
On to “SAGGSSGSMSPVLSLFEPGTGVVTYLLKKNDKLYLLVSTGSPGVPPVPSSVSPANLAAGDPVWATAGSAGGS [r16_809_JUSTAS]”, for which the entries for the “folding stability dG unfold” value in data set [1], in data set [2] and in data set [3] were -0.924 ± 0.26 kcal/mol, 0.77 ± 0.13 kcal/mol and 0.353 ± 0.1 kcal/mol, respectively.
The matching figures for “SAGGSSIKVTITDKNGNEYEIEIPSSLSLEEAKEKVKEYLEKKGYKVESITVENLPPGEAEIKVLKSAGGSA [r2_148_JUSTAS]”: 0.0509 ± 0.059 kcal/mol, 0.465 ± 0.21 kcal/mol and 0.423 ± 0.29 kcal/mol.
